Data from the supplement of paper PMC10065799, “High-throughput profiling of sequence recognition by tyrosine kinases and SH2 domains using bacterial peptide display” (eLife, 2023).

Assays:
[1] = biological target: SHP2-C SH2; assay: SH2 binding enrichment of the phosphorylated peptide, bacterial display (enrichment ratio); higher = better substrate or ligand; peptides without Tyr show the background
[2] = biological target: Grb2 SH2 (UniProt P62993); assay: as above
[3] = biological target: c-Src SH2; assay: as above
[4] = system: c-Src; assay: phosphorylation enrichment, bacterial display (enrichment ratio); higher = better substrate or ligand; peptides without Tyr show the background
[5] = biological target: MERTK (UniProt Q12866); assay: as above
[6] = biological target: EPHB2 (UniProt P29323); assay: as above
[7] = biological target: FGFR3 (UniProt P22607); assay: as above
[8] = system: Fer (mouse); assay: as above
[9] = biological target: Fes (UniProt P07332); assay: as above
[10] = system: AncSZ; assay: as above
[11] = system: c-Abl (mouse); assay: as above
[12] = biological target: EPHB1 (UniProt P54762); assay: as above
[13] = biological target: Fyn (UniProt P06241); assay: as above
[14] = biological target: Hck (UniProt P08631); assay: as above
[15] = biological target: Jak2 (UniProt O60674); assay: as above
[16] = biological target: FGFR1 (UniProt P11362); assay: as above
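Throughout, for SH2 binding enrichment of the phosphorylated peptide, bacterial display: peptide library displayed on the E. coli surface as eCPX fusions, selected cells deep-sequenced, score is each peptide's frequency after selection divided by its frequency in the input.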
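Throughout, for phosphorylation enrichment, bacterial display: 11-residue human phosphosite peptides and single-mutation variants displayed on the E. coli surface, counted by deep sequencing, each peptide's frequency after selection divided by its frequency in the unselected input library; frequency after pTyr selection over input frequency; kinase dosed for 20-30% of maximal phosphorylation in three min.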

Sequence of Fes (P07332 whole entry, looked up): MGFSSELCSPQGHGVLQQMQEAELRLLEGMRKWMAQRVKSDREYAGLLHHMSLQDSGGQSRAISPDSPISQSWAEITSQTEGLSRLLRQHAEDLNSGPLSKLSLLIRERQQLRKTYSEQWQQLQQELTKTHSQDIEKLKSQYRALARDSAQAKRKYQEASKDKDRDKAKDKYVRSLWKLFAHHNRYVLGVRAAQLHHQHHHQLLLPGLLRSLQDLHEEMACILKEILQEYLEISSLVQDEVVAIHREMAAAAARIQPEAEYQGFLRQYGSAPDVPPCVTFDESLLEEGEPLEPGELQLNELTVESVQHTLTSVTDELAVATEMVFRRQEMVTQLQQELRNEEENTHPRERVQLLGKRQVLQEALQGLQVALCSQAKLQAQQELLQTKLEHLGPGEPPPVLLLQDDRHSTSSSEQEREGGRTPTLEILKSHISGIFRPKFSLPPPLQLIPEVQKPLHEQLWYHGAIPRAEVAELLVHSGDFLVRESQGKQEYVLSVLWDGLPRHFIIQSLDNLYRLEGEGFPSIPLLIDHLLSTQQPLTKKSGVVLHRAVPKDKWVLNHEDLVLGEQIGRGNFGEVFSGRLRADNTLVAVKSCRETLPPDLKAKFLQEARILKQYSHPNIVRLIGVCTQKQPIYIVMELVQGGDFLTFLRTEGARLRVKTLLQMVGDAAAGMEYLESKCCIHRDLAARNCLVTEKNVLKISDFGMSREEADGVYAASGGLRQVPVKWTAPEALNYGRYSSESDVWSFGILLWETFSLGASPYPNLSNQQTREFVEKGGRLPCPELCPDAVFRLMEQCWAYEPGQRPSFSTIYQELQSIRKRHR
Sequence of Grb2 SH2 (P62993 whole entry, looked up): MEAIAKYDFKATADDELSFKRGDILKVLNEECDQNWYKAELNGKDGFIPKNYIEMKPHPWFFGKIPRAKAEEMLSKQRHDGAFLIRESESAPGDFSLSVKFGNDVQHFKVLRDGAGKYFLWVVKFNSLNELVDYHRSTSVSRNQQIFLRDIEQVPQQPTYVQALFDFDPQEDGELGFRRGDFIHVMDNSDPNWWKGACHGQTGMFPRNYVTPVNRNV
Sequence of EPHB2 (P29323 whole entry, looked up): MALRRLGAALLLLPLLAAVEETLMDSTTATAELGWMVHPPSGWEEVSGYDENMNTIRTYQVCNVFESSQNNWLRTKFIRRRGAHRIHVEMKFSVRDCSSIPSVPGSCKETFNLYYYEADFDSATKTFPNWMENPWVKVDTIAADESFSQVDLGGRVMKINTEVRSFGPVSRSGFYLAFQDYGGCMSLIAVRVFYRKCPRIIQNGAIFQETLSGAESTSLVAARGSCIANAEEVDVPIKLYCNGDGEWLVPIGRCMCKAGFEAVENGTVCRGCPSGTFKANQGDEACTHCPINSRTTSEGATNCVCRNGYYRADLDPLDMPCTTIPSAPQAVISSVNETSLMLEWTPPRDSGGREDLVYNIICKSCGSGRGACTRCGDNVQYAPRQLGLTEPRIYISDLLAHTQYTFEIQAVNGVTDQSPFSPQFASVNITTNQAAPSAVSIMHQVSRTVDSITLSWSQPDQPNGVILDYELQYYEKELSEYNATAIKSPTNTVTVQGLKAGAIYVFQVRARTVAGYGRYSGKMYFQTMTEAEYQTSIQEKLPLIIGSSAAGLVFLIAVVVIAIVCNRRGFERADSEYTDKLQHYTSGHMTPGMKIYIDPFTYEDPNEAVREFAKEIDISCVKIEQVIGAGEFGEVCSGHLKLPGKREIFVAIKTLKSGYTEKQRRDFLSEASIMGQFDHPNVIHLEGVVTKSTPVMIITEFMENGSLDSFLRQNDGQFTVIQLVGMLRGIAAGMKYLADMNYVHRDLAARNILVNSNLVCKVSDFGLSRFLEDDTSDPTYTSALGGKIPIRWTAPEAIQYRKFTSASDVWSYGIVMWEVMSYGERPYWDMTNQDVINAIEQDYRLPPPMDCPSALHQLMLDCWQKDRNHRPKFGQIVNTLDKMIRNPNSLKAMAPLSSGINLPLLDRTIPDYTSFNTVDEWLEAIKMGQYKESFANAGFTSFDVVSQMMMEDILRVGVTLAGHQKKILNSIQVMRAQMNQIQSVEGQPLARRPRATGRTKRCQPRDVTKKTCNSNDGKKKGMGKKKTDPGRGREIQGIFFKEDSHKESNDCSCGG
Sequence of FGFR1 (P11362 whole entry, looked up, the tested form may be a part): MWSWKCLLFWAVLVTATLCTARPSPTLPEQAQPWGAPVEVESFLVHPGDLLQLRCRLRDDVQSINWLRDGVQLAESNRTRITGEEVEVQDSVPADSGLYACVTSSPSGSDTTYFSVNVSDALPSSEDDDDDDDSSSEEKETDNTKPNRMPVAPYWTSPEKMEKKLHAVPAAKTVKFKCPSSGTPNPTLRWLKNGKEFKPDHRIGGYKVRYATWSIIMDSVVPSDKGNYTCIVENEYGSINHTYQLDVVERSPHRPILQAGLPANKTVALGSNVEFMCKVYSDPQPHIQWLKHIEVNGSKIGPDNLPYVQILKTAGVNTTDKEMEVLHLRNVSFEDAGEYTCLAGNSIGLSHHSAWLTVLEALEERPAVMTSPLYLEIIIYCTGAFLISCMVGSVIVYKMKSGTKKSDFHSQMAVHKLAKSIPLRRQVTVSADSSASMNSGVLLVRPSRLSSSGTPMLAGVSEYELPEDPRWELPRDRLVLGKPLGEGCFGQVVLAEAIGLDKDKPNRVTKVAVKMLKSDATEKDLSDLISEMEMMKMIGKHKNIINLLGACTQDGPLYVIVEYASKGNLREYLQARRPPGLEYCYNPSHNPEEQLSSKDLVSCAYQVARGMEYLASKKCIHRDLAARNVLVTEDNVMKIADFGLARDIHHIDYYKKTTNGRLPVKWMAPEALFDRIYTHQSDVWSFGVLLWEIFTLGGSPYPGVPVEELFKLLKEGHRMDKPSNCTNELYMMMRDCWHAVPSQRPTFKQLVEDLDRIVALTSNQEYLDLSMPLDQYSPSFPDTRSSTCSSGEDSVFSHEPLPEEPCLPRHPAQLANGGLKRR
Sequence of Fyn (P06241 whole entry, looked up): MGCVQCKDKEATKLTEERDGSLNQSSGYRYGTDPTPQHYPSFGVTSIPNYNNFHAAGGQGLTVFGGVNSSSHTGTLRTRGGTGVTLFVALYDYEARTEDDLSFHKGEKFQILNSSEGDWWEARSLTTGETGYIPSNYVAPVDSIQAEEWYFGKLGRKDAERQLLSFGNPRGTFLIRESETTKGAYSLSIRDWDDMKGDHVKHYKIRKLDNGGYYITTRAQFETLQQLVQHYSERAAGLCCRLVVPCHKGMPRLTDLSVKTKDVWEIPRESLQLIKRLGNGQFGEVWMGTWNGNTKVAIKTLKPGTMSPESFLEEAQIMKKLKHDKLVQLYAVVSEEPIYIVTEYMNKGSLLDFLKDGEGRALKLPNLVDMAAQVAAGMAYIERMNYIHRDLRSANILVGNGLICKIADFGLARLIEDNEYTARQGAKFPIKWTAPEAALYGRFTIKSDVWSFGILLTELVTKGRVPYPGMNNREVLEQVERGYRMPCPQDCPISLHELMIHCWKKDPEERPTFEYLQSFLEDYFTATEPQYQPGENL
Sequence of FGFR3 (P22607 whole entry, looked up): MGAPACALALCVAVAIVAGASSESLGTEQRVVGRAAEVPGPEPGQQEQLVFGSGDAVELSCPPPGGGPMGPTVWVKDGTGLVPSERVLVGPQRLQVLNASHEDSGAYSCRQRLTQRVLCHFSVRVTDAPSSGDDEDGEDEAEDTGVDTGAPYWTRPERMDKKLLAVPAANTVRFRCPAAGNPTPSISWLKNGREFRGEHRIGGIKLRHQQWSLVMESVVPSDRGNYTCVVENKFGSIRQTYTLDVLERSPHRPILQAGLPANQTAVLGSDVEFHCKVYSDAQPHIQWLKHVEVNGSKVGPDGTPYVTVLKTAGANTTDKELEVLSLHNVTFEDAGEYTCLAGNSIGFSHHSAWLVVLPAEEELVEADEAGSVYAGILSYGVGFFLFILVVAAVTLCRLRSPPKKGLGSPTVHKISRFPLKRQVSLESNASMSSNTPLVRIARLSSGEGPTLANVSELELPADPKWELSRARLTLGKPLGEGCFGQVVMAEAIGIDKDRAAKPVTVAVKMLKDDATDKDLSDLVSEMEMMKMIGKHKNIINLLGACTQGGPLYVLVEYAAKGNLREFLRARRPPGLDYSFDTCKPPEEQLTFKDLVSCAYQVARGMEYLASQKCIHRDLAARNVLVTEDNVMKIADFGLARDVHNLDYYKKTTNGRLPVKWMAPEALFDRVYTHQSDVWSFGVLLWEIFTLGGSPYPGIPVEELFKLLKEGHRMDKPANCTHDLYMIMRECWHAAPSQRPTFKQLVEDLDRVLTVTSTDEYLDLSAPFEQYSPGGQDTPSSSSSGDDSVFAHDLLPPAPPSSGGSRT
Sequence of Hck (P08631 whole entry, looked up): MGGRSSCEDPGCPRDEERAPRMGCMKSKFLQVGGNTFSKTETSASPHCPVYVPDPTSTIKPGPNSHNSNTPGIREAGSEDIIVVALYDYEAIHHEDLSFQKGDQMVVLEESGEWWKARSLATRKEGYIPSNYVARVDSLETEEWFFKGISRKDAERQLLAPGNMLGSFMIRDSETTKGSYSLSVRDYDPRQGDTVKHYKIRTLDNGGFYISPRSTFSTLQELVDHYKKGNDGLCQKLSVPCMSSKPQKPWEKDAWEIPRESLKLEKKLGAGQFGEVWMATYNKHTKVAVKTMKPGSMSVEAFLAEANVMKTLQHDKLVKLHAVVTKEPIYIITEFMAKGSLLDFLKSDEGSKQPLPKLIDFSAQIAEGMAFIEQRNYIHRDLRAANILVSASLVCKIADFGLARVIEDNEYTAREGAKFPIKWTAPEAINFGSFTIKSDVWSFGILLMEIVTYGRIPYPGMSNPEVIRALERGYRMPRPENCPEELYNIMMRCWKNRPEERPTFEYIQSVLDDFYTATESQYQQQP

Sequence | SH2 binding enrichment [1] | SH2 binding enrichment [2] | SH2 binding enrichment [3] | phosphorylation enrichment [4] | phosphorylation enrichment [5] | phosphorylation enrichment [6] | phosphorylation enrichment [7] | phosphorylation enrichment [8] | phosphorylation enrichment [9] | phosphorylation enrichment [10] | phosphorylation enrichment [11] | phosphorylation enrichment [12] | phosphorylation enrichment [13] | phosphorylation enrichment [14] | phosphorylation enrichment [15] | phosphorylation enrichment [16]
SPRDTYSDRIG [CTPS1_Y567_S571I] | 0.617 | 0.844 | 0.438 | 0.406 | 0.416 | 0.5 | 0.494 | 0.358 | 0.605 | 0.445 | 0.411 | 0.516 | 0.453 | 0.471 | 0.374 | 0.379
CLMILYRLKER [PTPRR_Y249] | 1.22 | 1.25 | 0.901 | 0.388 | 0.364 | 0.603 | 0.809 | 0.501 | 1.23 | 1.26 | 0.576 | 0.444 | 0.5 | 0.494 | 0.997 | 0.509
VAMDDYLKNVM [LRRK2_Y707] | 0.648 | 1.01 | 0.418 | 0.409 | 0.51 | 0.409 | 0.59 | 0.333 | 0.956 | 0.903 | 0.659 | 0.517 | 0.449 | 0.418 | 0.831 | 0.493
QRRFLYFFSFL [PTEN_Y176_V175L_YF] | 0.779 | 1.05 | 0.774 | 0.567 | 0.886 | 0.817 | 1.16 | 0.862 | 1.85 | 1.61 | 1.09 | 0.761 | 0.795 | 0.68 | 1.5 | 0.978
PSSRDYKHNIK [PIGN_Y227] | 0.774 | 0.895 | 0.495 | 0.417 | 0.463 | 0.47 | 0.587 | 0.569 | 0.572 | 0.442 | 0.471 | 0.321 | 0.456 | 0.474 | 0.481 | 0.448
NKYTTYLPWLP [C9orf24_Y126_R129W] | 1.01 | 1.14 | 0.739 | 4.72 | 3.37 | 12.8 | 2.25 | 9.65 | 0.944 | 1.08 | 1.94 | 6.9 | 6.75 | 8.09 | 2.34 | 2.77
MAPQMYEFHLP [NCAPD2_Y6] | 0.582 | 0.656 | 0.411 | 0.655 | 5.35 | 3.16 | 0.719 | 19.6 | 0.766 | 0.795 | 0.473 | 4.23 | 0.506 | 0.624 | 0.592 | 0.443
GSPPPYRRRKR [MBD1_Y403] | 0.41 | 0.597 | 0.458 | 0.638 | 0.593 | 0.625 | 0.601 | 0.608 | 0.605 | 0.665 | 0.55 | 0.451 | 0.535 | 0.537 | 0.519 | 0.464
DVRQEYSGMIL [PLXND1_Y616_P617S] | 0.39 | 0.696 | 0.536 | 0.477 | 0.35 | 0.531 | 0.565 | 0.567 | 0.891 | 0.795 | 0.484 | 0.432 | 0.434 | 0.498 | 0.678 | 0.504
FRPPYYHRDCM [HGD_Y334_N337D] | 0.913 | 1.08 | 1.09 | 0.455 | 0.444 | 0.611 | 0.735 | 0.499 | 0.867 | 0.805 | 0.572 | 0.536 | 0.417 | 0.415 | 0.723 | 0.56
PDSVDYRKKGF [CTSK_Y121_YF] | 0.638 | 0.755 | 0.625 | 0.366 | 0.368 | 0.646 | 0.88 | 0.521 | 0.536 | 0.524 | 0.391 | 0.468 | 0.32 | 0.55 | 0.49 | 0.402
GDYLSYREFHS [ERBIN_Y1107] | 0.539 | 0.972 | 0.407 | 2.48 | 0.489 | 23.1 | 3.56 | 0.414 | 0.903 | 2.1 | 19 | 16.8 | 2.8 | 2.42 | 1.54 | 4.66
TNRSVYFKPSL [NUP153_Y382] | 2.21 | 0.948 | 0.588 | 0.511 | 0.455 | 0.369 | 0.447 | 0.433 | 0.595 | 0.667 | 0.556 | 0.453 | 0.421 | 0.551 | 0.66 | 0.448
MGHVNYGAYIN [GLB1_Y485_R482H] | 0.902 | 5.27 | 1.39 | 0.589 | 0.358 | 0.796 | 0.444 | 0.395 | 0.661 | 0.602 | 0.571 | 0.535 | 0.521 | 0.471 | 0.672 | 0.384
SVQIVYKPVDL [MAPT_Y627] | 0.845 | 0.951 | 0.515 | 0.464 | 0.376 | 0.499 | 0.65 | 0.467 | 1.12 | 1.17 | 0.689 | 0.698 | 0.4 | 0.455 | 0.891 | 0.409
NVFGNYNQQPS [HNRNPA2B1_Y306_D302V] | 0.682 | 0.822 | 0.584 | 0.384 | 0.375 | 0.375 | 0.471 | 0.315 | 0.713 | 0.492 | 0.674 | 0.468 | 0.401 | 0.484 | 0.687 | 0.356
KRAIGYFSATS [FAM120A_Y327_YF] | 0.851 | 1.02 | 0.553 | 0.364 | 0.362 | 0.426 | 0.467 | 0.327 | 0.612 | 0.543 | 0.362 | 0.345 | 0.382 | 0.492 | 0.612 | 0.381
